Data on 1 protein can be found in article doi:10.1101/2023.04.21.537812 (bioRxiv, 2023).

The data set deals with the molecule itself. As to the kind of experiment: SEC. (In general: SEC sorts molecules by how far they enter the pores of the column.)

B1: uncleaved Ycf1p-3xFLAG (natural protein, S. cerevisiae, UniProt P39109 1-1515, looked up)
chain: MAGNLVSWACKLCRSPEGFGPISFYGDFTQCFIDGVILNLSAIFMITFGIRDLVNLCKKKHSGIKYRRNWIIVSRMALVLLEIAFVSLASLNISKEEAENFTIVSQYASTMLSLFVALALHWIEYDRSVVANTVLLFYWLFETFGNFAKLINILIRHTYEGIWYSGQTGFILTLFQVITCASILLLEALPKKPLMPHQHIHQTLTRRKPNPYDSANIFSRITFSWMSGLMKTGYEKYLVEADLYKLPRNFSSEELSQKLEKNWENELKQKSNPSLSWAICRTFGSKMLLAAFFKAIHDVLAFTQPQLLRILIKFVTDYNSERQDDHSSLQGFENNHPQKLPIVRGFLIAFAMFLVGFTQTSVLHQYFLNVFNTGMYIKSALTALIYQKSLVLSNEASGLSSTGDIVNLMSVDVQKLQDLTQWLNLIWSGPFQIIICLYSLYKLLGNSMWVGVIILVIMMPLNSFLMRIQKKLQKSQMKYKDERTRVISEILNNIKSLKLYAWEKPYREKLEEVRNNKELKNLTKLGCYMAVTSFQFNIVPFLVSCCTFAVFVYTEDRALTTDLVFPALTLFNLLSFPLMIIPMVLNSFIEASVSIGRLFTFFTNEELQPDSVQRLPKVKNIGDVAINIGDDATFLWQRKPEYKVALKNINFQAKKGNLTCIVGKVGSGKTALLSCMLGDLFRVKGFATVHGSVAYVSQVPWIMNGTVKENILFGHRYDAEFYEKTIKACALTIDLAILMDGDKTLVGEKGISLSGGQKARLSLARAVYARADTYLLDDPLAAVDEHVARHLIEHVLGPNGLLHTKTKVLATNKVSALSIADSIALLDNGEITQQGTYDEITKDADSPLWKLLNNYGKKNNGKSNEFGDSSESSVRESSIPVEGELEQLQKLNDLDFGNSDAISLRRASDATLGSIDFGDDENIAKREHREQGKVKWNIYLEYAKACNPKSVCVFILFIVISMFLSVMGNVWLKHWSEVNSRYGSNPNAARYLAIYFALGIGSALATLIQTIVLWVFCTIHASKYLHNLMTNSVLRAPMTFFETTPIGRILNRFSNDIYKVDALLGRTFSQFFVNAVKVTFTITVICATTWQFIFIIIPLSVFYIYYQQYYLRTSRELRRLDSITRSPIYSHFQETLGGLATVRGYSQQKRFSHINQCRIDNNMSAFYPSINANRWLAYRLELIGSIIILGAATLSVFRLKQGTLTAGMVGLSLSYALQITQTLNWIVRMTVEVETNIVSVERIKEYADLKSEAPLIVEGHRPPKEWPSQGDIKFNNYSTRYRPELDLVLKHINIHIKPNEKVGIVGRTGAGKSSLTLALFRMIEASEGNIVIDNIAINEIGLYDLRHKLSIIPQDSQVFEGTVRENIDPINQYTDEAIWRALELSHLKEHVLSMSNDGLDAQLTEGGGNLSVGQRQLLCLARAMLVPSKILVLDEATAAVDVETDKVVQETIRTAFKDRTILTIAHRLNTIMDSDRIIVLDNGKVAEFDSPGQLLSDNKSLFYSLCMEAGLVNEN
Take B1: the binding result is “binds”.
